Data: article PMC3769231
pKi: −log10 of the molar value.

Experiments:
[1] = target: papain (from papaya latex) (papaya) (UniProt P00784); assay: enzyme inhibition assay (Ki from substrate hydrolysis progress curves); papain activity in 50 mM phosphate buffer (pH 6.0), 40 µM Z-FR-AMC, 37°C, with or without NtCYS, reducing conditions
[2] = target: human liver cathepsin L (human); assay: enzyme inhibition assay (Ki from substrate hydrolysis progress curves); human cathepsin L activity in 400 mM sodium acetate buffer (pH 5.5), 40 µM Z-FR-AMC, 25°C, with or without NtCYS, reducing conditions
[3] = target: recombinant NtCP14 (N. tabacum); assay: enzyme inhibition assay (Ki(app) = [I0]/(V0/Vi-1)); apparent; recombinant NtCP14 activated in 100 mM sodium acetate (pH 4.0); hydrolysis of 40 µM Bz-FVR-AMC at 30°C, pH 6.0, reducing conditions, NtCYS varied
Chain of recombinant NtCP14 (N. tabacum) (main, as listed by the source): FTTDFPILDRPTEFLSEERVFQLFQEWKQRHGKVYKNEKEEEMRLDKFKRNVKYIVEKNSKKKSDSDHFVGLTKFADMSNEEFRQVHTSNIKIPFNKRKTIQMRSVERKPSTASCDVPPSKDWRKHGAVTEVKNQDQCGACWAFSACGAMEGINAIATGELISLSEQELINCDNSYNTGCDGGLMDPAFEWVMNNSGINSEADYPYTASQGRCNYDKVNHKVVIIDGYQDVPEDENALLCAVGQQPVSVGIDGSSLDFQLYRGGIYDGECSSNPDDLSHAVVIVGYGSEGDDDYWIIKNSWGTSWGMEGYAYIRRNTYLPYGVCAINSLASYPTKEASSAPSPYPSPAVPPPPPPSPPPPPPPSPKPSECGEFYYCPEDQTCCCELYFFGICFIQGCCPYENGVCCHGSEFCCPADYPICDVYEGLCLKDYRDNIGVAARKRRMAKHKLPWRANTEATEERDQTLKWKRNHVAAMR

Chain of papain (from papaya latex) (papaya) (P00784 134-345): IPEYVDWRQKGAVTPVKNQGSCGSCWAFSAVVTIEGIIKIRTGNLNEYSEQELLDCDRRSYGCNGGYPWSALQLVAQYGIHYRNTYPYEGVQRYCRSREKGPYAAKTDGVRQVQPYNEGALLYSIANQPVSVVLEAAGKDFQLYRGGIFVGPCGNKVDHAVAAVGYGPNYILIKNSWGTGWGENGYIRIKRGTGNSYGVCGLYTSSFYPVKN

pKi [1]: 7.19
pKi [2]: 9.41
pKi [3]: 6.13
Substance: recombinant NtCYS (natural protein)
